# Assay results taken from patent US20130309252A1 (UNIVERSITE DE LA MEDITERRANEE AIX MARSEILLE II, published 2013).
# Where no end group is shown, it is not given here.
# B1: JAM-C ΔPDZbm, yeast two-hybrid construct lacking the last three amino-acids (other)
# chain: ICCAYRRGCFISSKQDGESYKSPGKHDGVNYIRTSEEGDFRHKSS
# notes: End at 307 worked out from 'deletion of the last three amino-acids' of 263-310; not shown: Gal4 domain of the two-hybrid vector
# B2: JAM-B cytoplasmic C-terminal construct, yeast two-hybrid (other)
# chain: TCYAQRKGYFSKETSFQKGSPASKVTTMSENDFKHTKSFII
# notes: not shown: Gal4 domain of the two-hybrid vector
# B3: JAM-B ΔPDZbm, yeast two-hybrid construct lacking the last three amino-acids (other)
# chain: TCYAQRKGYFSKETSFQKGSPASKVTTMSENDFKHTKS
# notes: End at 295 worked out from 'deletion of the last three amino-acids' of 258-298; not shown: Gal4 domain of the two-hybrid vector
# B4: ADAM17 C-terminal sequence, yeast two-hybrid construct (other)
# chain: CVDKKLDKQYESLSLFHHSNIEMLSSMDSASVRIIKPFPAPQTPGRLQALQPAAMMPPVSAAPKLDHQRMDTIQEDPSTDSHVDDDGFEKDPFPNSSTAAKSFEDLTDHPVTRSEKAASFKLQRQSRVDSKETEC
# notes: as for B2
# B5: JAM-C cytoplasmic C-terminal construct, yeast two-hybrid (other)
# chain: ICCAYRRGCFISSKQDGESYKSPGKHDGVNYIRTSEEGDFRHKSSFVI
# notes: also called JAM-C C-terminal region; not shown: Gal4 domain of the two-hybrid vector
# B6: JAM-A ΔPDZbm, yeast two-hybrid construct lacking the last three amino-acids (other)
# chain: AYSRGYFETTKKGTAPGKKVIYSQPSTRSEGEFKQTS
# notes: End at 296 worked out from 'deletion of the last three amino-acids' of 260-299; not shown: Gal4 domain of the two-hybrid vector
# B7: ADAM10 C-terminal sequence, yeast two-hybrid construct (other)
# chain: FIKICSVHTPSSNPKLPPPKPLPGTLKRRRPPQPIQQPPRQRPREYQMGHMRR
# notes: as for B2
# B8: biotinylated peptide corresponding to the last 19 amino-acids of JAM-C (peptide)
# peptide: NYIRTSEEGDFRHKSSFVI
# modifications: also: biotinylated (position not given here)
# notes: also called JAM-C peptide; biotinylated JAM-C
# B9: JAM-A, endogenous mouse protein immunoprecipitated with rat mAb H202 (receptor)
# chain: KGSVYTAQSDVQVPENESIKLTCTYSGFSSPRVEWKFVQGSTTALVCYNSQITAPYADRVTFSSSGITFSSVTRKDNGEYTCMVSEEGGQNYGEVSIHLTVLVPPSKPTISVPSSVTIGNRAVLTCSEHDGSPPSEYSWFKDGISMLTADAKKTRAFMNSSFTIDPKSGDLIFDPVTAFDSGEYYCQAQNGYGTAMRSEAAHMDAVELNVGGIVAAVLVTLILLGLLIFGVWFAYSRGYFETTKKGTAPGKKVIYSQPSTRSEGEFKQTSSFLV
# notes: also called junctional adhesion molecule A
# B10: JAM-C, endogenous mouse protein immunoprecipitated with rat mAb 19H36 (receptor)
# chain: EAVNLKSSNRNPVVHEFESVELSCIITDSQTSDPRIEWKKIQDGQTTYVYFDNKIQGDLAGRTDVFGKTSLRIWNVTRSDSAIYRCEVVALNDRKEVDEITIELIVQVKPVTPVCRIPAAVPVGKTATLQCQESEGYPRPHYSWYRNDVPLPTDSRANPRFQNSSFHVNSETGTLVFNAVHKDDSGQYYCIASNDAGAARCEGQDMEVYDLNIAGIIGGVLVVLIVLAVITMGICCAYRRGCFISSKQDGESYKSPGKHDGVNYIRTSEEGDFRHKSSFVI
# notes: also called junctional adhesion molecule C
# B11: JAM-B, endogenous mouse protein immunoprecipitated with rat mAb JB4 (receptor)
# chain: FSASKDHRQEVTVIEFQEAILACKTPKKTTSSRLEWKKVGQGVSLVYYQQALQGDFKDRAEMIDFNIRIKNVTRSDAGEYRCEVSAPTEQGQNLQEDKVMLEVLVAPAVPACEVPTSVMTGSVVELRCQDKEGNPAPEYIWFKDGTSLLGNPKGGTHNNSSYTMNTKSGILQFNMISKMDSGEYYCEARNSVGHRRCPGKRMQVDVLNISGIIATVVVVAFVISVCGLGTCYAQRKGYFSKETSFQKGSPASKVTTMSENDFKHTKSFII
# notes: also called junctional adhesion molecule B
# Target: Grasp55 PDZI + II (1-160), yeast two-hybrid construct (murine, UniProt Q99JX3 1-160)
# Assay: yeast two-hybrid, growth on selective medium
# From the text: (§1) The different GRASP55 constructs were cloned into pGBT9 GW vector (Ga14 DNA-binding domain fusion vector, Trp) as well in the pACT2 GW vector (Gal4 DNA-activation domain fusion vector, Leu) using the Gateway technology (Invitrogen). Plasmids were then co-transformed in AH109 yeast strain (/MATa, trp1-901, leu2-3, 112, ura3-52, his3-200, gal4/A, /gal80/A, /LYS2::GAL1//UAS//-GAL1//TATA//-HIS3, GAL2//UAS//-GAL2//TATA//-ADE2, URA3::MEL1//UAS//-MEL1//TATA//-lacZ, MEL1/) in accordance with the previously described transformation protocol (Chien et al. 1991. Proc Natl Acad Sci USA. 88:9578-82). Following co-transformation with the two vectors containing the different constructs (as well as the empty vector to test self activation), yeasts were plated onto Synthetic Complete (SC) medium minus Leucine (−L), minus Tryptophan (−W), minus Histidine (−H) and incubated at 30° C. for 4 to 5 days. All yeast media were prepared as previously described.
# (§2) GST fusion proteins were produced and yeast two-hybrid assay was performed as previously described in example 1.
row,Binder,binding result
1,B1,no binding
2,B2,binds
3,B3,no binding
4,B4,no binding
5,B5,binds
6,B6,no binding

# Target: T1, Grasp55 FL, yeast two-hybrid construct (murine, UniProt Q99JX3 1-451)
# T1 construct: Gal4 fusion expressed in yeast AH109; also called wt Grasp55
# Assay: yeast two-hybrid, growth on selective medium
# From the text: as §1, §2
row,Binder,binding result
1,B1,no binding
2,B2,binds
3,B3,no binding
4,B5,binds
5,B6,no binding

# Target: T2, Grasp55 PDZI (1-79), yeast two-hybrid construct (murine, UniProt Q99JX3 1-79)
# T2 construct: also called isolated first PDZ domain
# Assay: yeast two-hybrid, growth on selective medium
# From the text: as §1, §2
row,Binder,binding result
1,B7,no binding
2,B1,no binding
3,B2,no binding
4,B3,no binding
5,B4,no binding
6,B5,no binding
7,B6,no binding

# Target: Grasp55 PDZI′ (1-107), yeast two-hybrid construct (murine, UniProt Q99JX3 1-107)
# Assay: yeast two-hybrid, growth on selective medium
# From the text: as §1, §2
row,Binder,binding result
1,B7,no binding
2,B1,no binding
3,B4,no binding
4,B5,binds

# Target: Grasp55 PDZI′ + II′ (1-208), yeast two-hybrid construct (murine, UniProt Q99JX3 1-208)
# Assay: yeast two-hybrid, growth on selective medium
# From the text: as §1, §2
row,Binder,binding result
1,B1,no binding
2,B4,no binding
3,B5,binds

# Target: Grasp55 PDZII′ (108-208), yeast two-hybrid construct (murine, UniProt Q99JX3 108-208)
# Assay: yeast two-hybrid, growth on selective medium
# From the text: as §1, §2
row,Binder,binding result
1,B7,no binding
2,B1,no binding
3,B4,no binding
4,B5,no binding

# Target: T3, Grasp55 PDZII (80-160), yeast two-hybrid construct (murine, UniProt Q99JX3 80-160)
# T3 construct: also called isolated second PDZ domain
# Assay: yeast two-hybrid, growth on selective medium
# From the text: as §1, §2
row,Binder,binding result
1,B1,no binding
2,B2,no binding
3,B3,no binding
4,B4,binds
5,B5,no binding
6,B6,no binding

# Target: T4, GST-GRASP55 PDZ I (murine)
# T4 construct: also called PDZ I of Grasp55; PDZI (1-79)
# T4 sequence (chain, as listed by the source): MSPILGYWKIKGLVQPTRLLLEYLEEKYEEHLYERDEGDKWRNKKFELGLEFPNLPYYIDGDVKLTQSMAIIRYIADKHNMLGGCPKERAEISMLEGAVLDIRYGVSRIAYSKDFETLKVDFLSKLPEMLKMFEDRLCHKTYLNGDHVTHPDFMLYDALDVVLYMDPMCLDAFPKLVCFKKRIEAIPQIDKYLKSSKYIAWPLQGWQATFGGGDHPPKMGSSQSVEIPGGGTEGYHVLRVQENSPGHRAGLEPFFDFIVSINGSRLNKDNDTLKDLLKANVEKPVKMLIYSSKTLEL
# Assay: ELISA, GST fusion on glutathione plate, biotinylated peptide
# Protocol: (§3) Ninety-six well plates coated with glutathione were incubated overnight with various GST fusion proteins. The plates were then washed, blocked and incubated with JAMs biotinylated peptides with or without PDZ binding motif. […] Results are expressed as Mean+/−SEM of Relative Unit of absorbance measured at 450 nm. […] One representative experiment is shown.
# (§4) To set up ELISA test, various proteins of soluble GST-GRASP55 proteins were incubated on ninety-six-well plates (Nalge Nunc International) coated with glutathione. Plates were then washed and blocked with buffer containing PBS and 2% of bovine albumin for 2 hours. […] After three successive washes, streptavidin-HRP was added to reveal the various complexes, followed by a HRP substrate, tetramethylbenzidine (TMB). Absorbance (OD_{450 nm}) was determined on an ELISA POLARstar reader.
row,Binder,binding result
1,B8,no binding

# Target: T5, GST-GRASP55 PDZ I+II (murine)
# T5 construct: also called PDZ I+II of Grasp55; PDZI+II (1-160)
# T5 sequence (chain, as listed by the source): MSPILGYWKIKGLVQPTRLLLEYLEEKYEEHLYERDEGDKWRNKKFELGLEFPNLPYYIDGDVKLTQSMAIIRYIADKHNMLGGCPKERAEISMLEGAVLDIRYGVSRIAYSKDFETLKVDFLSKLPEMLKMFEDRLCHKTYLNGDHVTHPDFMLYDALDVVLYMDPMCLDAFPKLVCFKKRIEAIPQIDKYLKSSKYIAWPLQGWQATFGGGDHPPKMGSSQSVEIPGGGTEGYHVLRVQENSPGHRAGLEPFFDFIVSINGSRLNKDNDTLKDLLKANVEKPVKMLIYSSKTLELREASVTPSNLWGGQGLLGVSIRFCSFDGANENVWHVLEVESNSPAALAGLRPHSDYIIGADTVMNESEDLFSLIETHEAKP
# Assay: as above
# Protocol: as §3, §4
row,Binder,binding result
1,"NYIRTSEEGDFRHKSS (also: biotinylated (position not given here), also called JAM-CΔ) [biotinylated JAM-C control peptide ΔPDZbm, lacking the last three amino-acids]",no binding

# Target: T6, Grasp55 (Golgi reassembly-stacking protein of 55 kDa), endogenous mouse protein in cell lysates (murine, UniProt Q99JX3 2-451, limits assumed)
# T6 construct: Endogenous protein detected by mass spectrometry or anti-GRASP55 blot
# Assay: peptide pull-down of cell lysates, anti-GRASP55 blot
# From the text: (§5) Total cell lysates were used as controls. Proteins were then resolved on SDS-PAGE and blotted with anti-GRASP55 antibody. Arrows indicate the signal corresponding to Grasp55.
row,Binder,binding result
1,"NYIRTSEEGDFRHKSS (also: biotinylated (position not given here), also called JAM-CΔ) [biotinylated JAM-C control peptide ΔPDZbm, lacking the last three amino-acids]",no binding

# Target: T7, GST-PDZI′+II′ recombinant Grasp55 protein (murine)
# T7 construct: also called Grasp-GST-PDZI′+II′
# Assay: HTRF
# Protocol: (§6) In some experiments, competing peptide or chemicals were added to the incubation mix at the indicated concentration. After incubation, microtiter plates (Costar #3693) were red using PolarScan Omega (BMG Labtech) equipped for HTRF measurements. Upon excitation at 320 nm, a 620 nm fluorescence emission is produced by the donor terbium that in turn excites a 665 nm light emission by a Streptavidin-d2 (acceptor) bound to the Biotinylated interacting Peptide if the latter is interacting with the donor. The […] R ratio is obtained and a Delta F is computed as: [(Rₛₐₘₚₗₑ−RNSB)/RNSB]*100 where RNSB is the Non Specific Background signal determined in incubates where the GST-fusion protein was omitted.
row,Binder,binding result
1,"NYIRTSEEGDFRHKSS (also: biotinylated (position not given here), also called JAM-CΔ) [biotinylated JAM-C control peptide ΔPDZbm, lacking the last three amino-acids]",no binding (tested: 1.9*10^-7M peptide)

# Target: T8, GST-PDZI′ recombinant Grasp55 protein (murine)
# T8 construct: also called Grasp-GST-PDZI′; PDZI′-GST-construct
# T8 sequence (chain, as listed by the source): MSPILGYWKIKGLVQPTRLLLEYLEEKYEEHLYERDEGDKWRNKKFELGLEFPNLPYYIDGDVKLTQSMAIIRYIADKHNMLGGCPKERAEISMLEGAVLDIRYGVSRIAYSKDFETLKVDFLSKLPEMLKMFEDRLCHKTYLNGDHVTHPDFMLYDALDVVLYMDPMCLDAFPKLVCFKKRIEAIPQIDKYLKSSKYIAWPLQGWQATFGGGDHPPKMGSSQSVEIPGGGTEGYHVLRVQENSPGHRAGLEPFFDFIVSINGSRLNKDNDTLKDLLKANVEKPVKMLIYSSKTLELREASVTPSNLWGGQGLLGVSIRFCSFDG
# Assay: HTRF
# Protocol: as §6
row,Binder,binding result
1,"NYIRTSEEGDFRHKSS (also: biotinylated (position not given here), also called JAM-CΔ) [biotinylated JAM-C control peptide ΔPDZbm, lacking the last three amino-acids]",no binding (tested: 1.9*10^-7M peptide)

# Target: T8, GST-PDZI′ recombinant Grasp55 protein
# Assay: HTRF competition against biotinylated JAM-C peptide
# Protocol: as §6
row,Binder,fold increase in EC50 against GST-PDZI′+II′ and GST-GraspFL [fold]
1,NYIRTSEEGDFRHKSSFVI (also called JAM-C unlabelled peptide) [non-biotinylated (unlabelled) JAM-C peptide],20

# Target: T6, Grasp55 (Golgi reassembly-stacking …)
# Assay: peptide pull-down of KLN205 lysates, mass spectrometry
# From the text: As control, the same peptides, but deleted of the last three amino-acids known as the functional PDZ binding motif of JAM family members, were used.
row,Binder,binding result
1,"SKVTTMSENDFKHTKS (also: biotinylated (position not given here), also called JAM-BΔ) [biotinylated JAM-B control peptide, last 19 amino-acids deleted of the last three amino-acids]",no binding

# Target: T6, Grasp55 (Golgi reassembly-stacking …)
# Assay: co-immunoprecipitation, anti-GRASP55 blot
# Protocol: as §5
# Protein concentration of the samples was determined according to the Bradford method.
row,Binder,binding result
1,B9,binds
2,B10,binds
3,B11,binds
